According to patent US20170100454A1 (VANDERBILT UNIVERSITY, published 2017):
Positions of bridges follow the written chain, without caps; N, C: chain ends. No end group written: not given here. *: point of attachment. Biotin = O=C1N[C@H]2[C@H](CS[C@H]2CCCCC(=O)*)N1

Tests used:
[1] = molecular target: GST-tagged Imp α5 ΔIBB (human) (UniProt P52294); test: BLI (Octet RED96), biotinylated N50 on SA biosensors, GST-tagged Imp α5 ΔIBB at 50-200 nM, 2:1 model; column Imp α5 Minor
[2] = molecular target: GST-tagged Imp α5 ΔIBB (human) (UniProt P52294); test: BLI (Octet RED96), biotinylated N50 on SA biosensors, GST-tagged Imp α5 ΔIBB at 50-200 nM, 2:1 model; column Imp α5 Major
[3] = molecular target: GST-tagged Imp α5 ΔIBB (human) (UniProt P52294); test: BLI, biotinylated N50 on SA biosensors; reference is GST-tagged Imp α1 ΔIBB
[4] = molecular target: Endogenous human importin alpha 1 (human) (UniProt P52292); test: competition pull-down, 1.5 mg/mL Jurkat T cell lysate, 300 µM free N50 against biotinylated N50 on SA beads, quantitative immunoblot
[5] = molecular target: T1, Endogenous human importin alpha 4 (human, UniProt O00505 2-521); test: as above
T1 construct: mature; also called Imp α4
T1 sequence (looked up): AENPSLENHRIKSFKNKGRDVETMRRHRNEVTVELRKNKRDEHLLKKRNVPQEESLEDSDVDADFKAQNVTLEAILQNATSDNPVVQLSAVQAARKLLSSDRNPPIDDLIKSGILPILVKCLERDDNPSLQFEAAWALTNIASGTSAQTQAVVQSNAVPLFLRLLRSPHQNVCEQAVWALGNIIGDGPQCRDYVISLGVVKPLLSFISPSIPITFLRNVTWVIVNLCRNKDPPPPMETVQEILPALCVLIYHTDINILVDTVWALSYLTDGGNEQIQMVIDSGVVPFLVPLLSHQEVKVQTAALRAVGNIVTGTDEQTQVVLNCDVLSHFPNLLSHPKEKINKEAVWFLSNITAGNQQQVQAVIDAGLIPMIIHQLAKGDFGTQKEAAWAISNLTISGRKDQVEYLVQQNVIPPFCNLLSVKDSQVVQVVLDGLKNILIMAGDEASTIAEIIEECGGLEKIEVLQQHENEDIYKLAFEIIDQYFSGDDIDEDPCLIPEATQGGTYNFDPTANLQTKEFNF

[6] = molecular target: T2, Endogenous human importin alpha 5 (human, UniProt P52294 1-529 at identity 1.00)); test: competition pull-down at 1.5 mg/mL Jurkat T lysate protein, biotinylated N50 on streptavidin beads as competitor, quantitative immunoblot
T2 construct: Endogenous protein in whole cell lysates, and in Hep-G2 cells for the functional rows; also called Imp α5; KPNA1

[7] = molecular target: T3, GAPDH (Homo sapiens, UniProt P04406); test: pull-down: biotinylated peptide in Jurkat T whole cell lysate, streptavidin-coated beads, immunoblot
T3 construct: endogenous, as present in the lysate; also called cellular protein GAPDH

[8] = molecular target: T4, Endogenous human importin beta 1 (human, UniProt Q14974 1-876); test: as above
T4 construct: mature; Endogenous protein in whole cell lysates, and in Hep-G2 cells for the functional rows; also called Imp β1; KPNB1

[9] = molecular target: T2, Endogenous human importin alpha 5; test: pull-down with biotinylated AR1 and SA beads from Jurkat T cell lysate, immunoblot
[10] = molecular target: T1, Endogenous human importin alpha 4; test: as above
[11] = molecular target: T5, Endogenous human importin alpha 7 (human, UniProt O60684 1-536); test: as above
T5 construct: mature; also called Imp α7

[12] = molecular target: T6, Endogenous human importin alpha 3 (human, UniProt O00629 2-521); test: as above
T6 construct: mature; also called Imp α3
T6 sequence (looked up): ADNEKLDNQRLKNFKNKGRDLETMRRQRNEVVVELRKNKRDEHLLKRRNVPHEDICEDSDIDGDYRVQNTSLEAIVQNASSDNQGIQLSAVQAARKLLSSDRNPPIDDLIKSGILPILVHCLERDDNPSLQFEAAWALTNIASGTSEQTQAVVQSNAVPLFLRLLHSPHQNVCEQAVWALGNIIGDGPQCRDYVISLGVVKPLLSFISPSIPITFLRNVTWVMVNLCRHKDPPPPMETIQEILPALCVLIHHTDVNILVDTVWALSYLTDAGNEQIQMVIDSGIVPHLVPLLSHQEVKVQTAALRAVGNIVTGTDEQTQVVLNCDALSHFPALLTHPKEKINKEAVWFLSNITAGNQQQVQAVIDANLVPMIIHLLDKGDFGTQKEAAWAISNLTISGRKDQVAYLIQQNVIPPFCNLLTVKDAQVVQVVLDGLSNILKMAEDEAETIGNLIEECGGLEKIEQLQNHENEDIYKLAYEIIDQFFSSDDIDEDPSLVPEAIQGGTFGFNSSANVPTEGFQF

[13] = molecular target: T5, Endogenous human importin alpha 7; test: pull-down: biotinylated peptide in Jurkat T whole cell lysate, streptavidin-coated beads, immunoblot
[14] = molecular target: T6, Endogenous human importin alpha 3; test: as above
[15] = molecular target: T4, Endogenous human importin beta 1; test: pull-down with biotinylated peptide and SA beads from whole cell lysate, immunoblot
[16] = molecular target: T5, Endogenous human importin alpha 7; test: as above
[17] = molecular target: T3, GAPDH; test: pull-down: biotinylated peptide in Jurkat T whole cell lysate, streptavidin-coated beads, immunoblot [A]

T3 sequence (P04406 2-335 limits assumed): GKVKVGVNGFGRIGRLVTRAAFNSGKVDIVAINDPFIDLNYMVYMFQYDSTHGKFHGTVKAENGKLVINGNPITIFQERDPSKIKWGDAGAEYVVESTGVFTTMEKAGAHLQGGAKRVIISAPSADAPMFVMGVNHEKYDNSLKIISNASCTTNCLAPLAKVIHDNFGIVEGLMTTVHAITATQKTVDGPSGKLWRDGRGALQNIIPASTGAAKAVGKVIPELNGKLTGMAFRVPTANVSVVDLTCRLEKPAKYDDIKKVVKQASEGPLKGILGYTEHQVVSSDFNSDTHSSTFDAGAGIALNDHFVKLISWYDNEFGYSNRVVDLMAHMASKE
T4 sequence (Q14974 whole entry): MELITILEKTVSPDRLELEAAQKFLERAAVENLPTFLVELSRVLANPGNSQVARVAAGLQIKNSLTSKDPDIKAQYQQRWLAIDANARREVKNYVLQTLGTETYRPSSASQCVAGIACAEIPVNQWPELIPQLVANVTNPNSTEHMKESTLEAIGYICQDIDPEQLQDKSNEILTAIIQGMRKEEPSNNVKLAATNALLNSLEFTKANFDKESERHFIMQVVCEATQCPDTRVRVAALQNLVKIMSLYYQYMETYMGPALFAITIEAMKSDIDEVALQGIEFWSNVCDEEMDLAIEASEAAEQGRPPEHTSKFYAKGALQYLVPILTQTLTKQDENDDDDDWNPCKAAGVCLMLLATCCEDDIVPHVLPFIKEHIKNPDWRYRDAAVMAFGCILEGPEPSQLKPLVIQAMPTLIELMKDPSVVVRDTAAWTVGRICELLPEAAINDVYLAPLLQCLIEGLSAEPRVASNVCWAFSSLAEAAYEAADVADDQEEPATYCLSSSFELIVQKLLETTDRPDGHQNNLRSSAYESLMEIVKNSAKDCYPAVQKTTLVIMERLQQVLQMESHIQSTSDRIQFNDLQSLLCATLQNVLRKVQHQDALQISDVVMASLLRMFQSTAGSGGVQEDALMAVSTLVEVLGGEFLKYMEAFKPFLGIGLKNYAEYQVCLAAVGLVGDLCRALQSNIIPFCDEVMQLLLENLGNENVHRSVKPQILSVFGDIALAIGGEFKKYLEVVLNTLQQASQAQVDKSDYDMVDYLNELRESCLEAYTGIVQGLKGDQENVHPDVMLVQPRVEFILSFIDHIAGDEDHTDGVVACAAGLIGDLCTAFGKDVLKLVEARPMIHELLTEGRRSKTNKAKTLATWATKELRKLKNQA
GST-tagged Imp α5 ΔIBB (human), sequence (P52294 101-529, stated change not applied): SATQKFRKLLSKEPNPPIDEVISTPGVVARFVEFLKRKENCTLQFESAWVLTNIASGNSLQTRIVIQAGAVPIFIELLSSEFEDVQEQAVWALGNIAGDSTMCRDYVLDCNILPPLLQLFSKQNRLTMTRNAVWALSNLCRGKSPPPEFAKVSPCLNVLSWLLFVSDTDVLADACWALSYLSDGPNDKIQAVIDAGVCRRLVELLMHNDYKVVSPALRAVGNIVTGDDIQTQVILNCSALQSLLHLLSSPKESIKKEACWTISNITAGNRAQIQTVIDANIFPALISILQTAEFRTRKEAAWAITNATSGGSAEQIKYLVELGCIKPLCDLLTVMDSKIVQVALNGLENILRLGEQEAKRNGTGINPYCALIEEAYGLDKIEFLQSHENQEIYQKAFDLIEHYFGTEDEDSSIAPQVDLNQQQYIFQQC
T2 sequence (P52294 1-529 S73N): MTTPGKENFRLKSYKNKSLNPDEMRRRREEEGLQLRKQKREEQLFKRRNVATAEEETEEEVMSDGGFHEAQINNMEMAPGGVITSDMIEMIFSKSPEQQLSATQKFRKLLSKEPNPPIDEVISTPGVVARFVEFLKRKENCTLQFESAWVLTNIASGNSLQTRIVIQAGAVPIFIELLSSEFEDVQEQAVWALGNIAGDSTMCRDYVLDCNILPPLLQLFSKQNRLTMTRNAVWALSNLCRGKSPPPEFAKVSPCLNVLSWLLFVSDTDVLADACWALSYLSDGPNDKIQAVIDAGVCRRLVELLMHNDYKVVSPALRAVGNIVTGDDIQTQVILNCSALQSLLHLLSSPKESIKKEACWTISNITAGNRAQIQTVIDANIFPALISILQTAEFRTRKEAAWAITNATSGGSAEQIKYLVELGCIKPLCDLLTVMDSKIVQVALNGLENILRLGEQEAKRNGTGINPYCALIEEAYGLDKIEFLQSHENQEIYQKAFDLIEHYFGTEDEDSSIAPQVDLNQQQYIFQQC

Biotinylated N50 peptide
Kd [1]: 140 nM | Kd [2]: 73 nM | fold maximum response against Imp α1 [3]: > 20 fold

B1: Unlabeled N50 peptide (peptide)
peptide: VQRKRQKLMP
notes: also called free N50; non-biotinylated N50 peptide
percent reduction of band intensity [4]: 20% | percent reduction of band intensity [5]: 20% | IC50 (read off the curve) [6]: ~10000 nM

B2: Biotinylated AR1 peptide (auto-inhibitory region of Imp α1) (peptide)
peptide: VELRKAKKDDQMLKRRNVSSF
modifications: also: biotinylated (position and linker not given here)
binding result [7]: no binding | binding result [8]: no binding | binding result [9]: no binding | binding result [10]: no binding | binding result [11]: no binding | binding result [12]: no binding

B3: Biotinylated AR3 peptide (auto-inhibitory region of Imp α3) (peptide)
peptide: VELRKNKRDEHLLKRRNVPHE
modifications: also: biotinylated (position and linker not given here)
binding result [7]: no binding | binding result [8]: no binding | binding result [13]: no binding

B4: Biotinylated AR4 peptide (auto-inhibitory region of Imp α4) (peptide)
peptide: VELRKNKRDEHLLKKRNVPQE
modifications: also: biotinylated (position and linker not given here)
binding result [7]: no binding | binding result [8]: no binding | binding result [13]: no binding

B5: Biotinylated AR5 peptide (auto-inhibitory region of Imp α5) (peptide)
peptide: LQLRKQKREEQLFKRRNVATA
modifications: also: biotinylated (position and linker not given here)
binding result [7]: no binding | binding result [8]: no binding | binding result [13]: no binding | binding result [14]: no binding

B6: Biotinylated AR7 peptide (auto-inhibitory region of Imp α7) (peptide)
peptide: IQLRKQKREQQLFKRRNVELI
modifications: also: biotinylated (position and linker not given here)
binding result [7]: no binding | binding result [8]: no binding

B7: Biotinylated cN50.1 peptide (peptide)
peptide: Biotin-GGGGGCVQRKRQKLMPC
modifications: disulfide 6-17 (inferred)
notes: also called cyclized N50
binding result [15]: no binding | binding result [16]: no binding | binding result [17]: no binding
